Target: purified folded MHC-complex (Example 34, allele and peptide not stated)
Experiment: sandwich ELISA, W6/32 coated, HRP rabbit anti-β2m detection

W6/32 mouse-anti-HLA-ABC antibody (Dako M0736)
fold of OD450 against the negative control β2m: > 6 fold
